In patent US20130295090A1:

B1: humanized MAb B2 (antibody)
VH: EVQLLEQSGSEVKKPGASVKVSCKASGYPFTDYAMSWVRQAPGQGLEYMGWIFTNSGNPTYAPGFAGRFVFSLDISVNTAYLHIDSLKPEDTAVYYCARGIVTPAASGDYFDSWGQGTLVTVSSASTKGPSVFPLAPSSKSTSGGTAALGCLVKDYFPEPVTVSWNSGALTSGVHTFPAVLQSSGLYSLSSVVTVPSSSLGTQTYICNVDHKPSNTKVDKKVEPKSCDKTHTCPPCPAPPVEGGPSVFLFPPKPKDTLMISRTPEVTCVVVDVSHEDPEVKFNWYVDGVEVHNAKTKPREEQYNSTYRVVSVLTVLHQDWLNGKEYKCKVSNKALPAPIEKTISKAKGQPREPQVYTLPPSRDELTKNQVSLTCLVKGFYPSDIAVEWESNGQPENNYKTTPPVLDSDGSFFLYSKLTVDKSRWQQGNVFSCSVMHEALHNHYTQKSLSLSPGK
VL: ELVLTQSPSSLSASIGDRVTITCRASQHISSWLAWYQQKPGKAPKPLIYAASSLKSGVPSRFSGSGSGTDFTLTISGLQPEDFATYYCQQYENSPVTFGGGTKVEIKRTVAAPSVFIFPPSDEQLKSGTASVVCLLNNFYPREAKVQWKVDNALQSGNSQESVTEQDSKDNTYSLSSTLTLSKADYEKHKVYACEVTHQGLSSPVTKSFN
B2: humanized MAb A3 (antibody)
VH: EVQLLESGAEVKKPGSSVRISCKVSGTPYSSYVMNWVRQAPGQGLEWMGVFVPSLDRALYAQNFQGRLSITADTTTTYMELTSLKFEDTAVYYCATDFSVGWLRPLDRWGQGTLVTVSSASTKGPSVFPLAPSSKSTSGGTAALGCLVKDYFPEPVTVSWNSGALTSGVHTFPAVLQSSGLYSLSSVVTVPSSSLGTQTYICNVDHKPSNTKVDKKVEPKSCDKTHTCPPCPAPPVEGGPSVFLFPPKPKDTLMISRTPEVTCVVVDVSHEDPEVKFNWYVDGVEVHNAKTKPREEQYNSTYRVVSVLTVLHQDWLNGKEYKCKVSNKALPAPIEKTISKAKGQPREPQVYTLPPSRDELTKNQVSLTCLVKGFYPSDIAVEWESNGQPENNYKTTPPVLDSDGSFFLYSKLTVDKSRWQQGNVFSCSVMHEALHNHYTQKSLSLSPGK
VL: not shown

Biological target: JEV strain SA14-14-2 envelope (E) protein on virions (Japanese encephalitis virus strain SA14-14-2), P0DOH7
Experiment: ELISA on JEV virions captured with HMAF, half-maximal binding, MAb
Settings: remark: other sources report otherwise

Binder | Kd
B1 | 0.08 nM
B2 | 0.15 nM
